# Experimental data as given in PMC4428439, “Anti-adaptors use distinct modes of binding to inhibit the RssB-dependent turnover of RpoS (σ^S) by ClpXP” (Frontiers in Molecular Biosciences, 2015).
# T1: RssBC, C-terminal domain of RssB (residues 131-337), untagged, purified (E. coli, UniProt P0AEV1 131-337)
# T1 construct: RssB, E. coli, C-terminal effector domain, residues 131-337; also called C-terminal effector domain of RssB; source: E. coli, Ub-fusion system, purified (IMAC, SEC)
# T1 sequence (looked up): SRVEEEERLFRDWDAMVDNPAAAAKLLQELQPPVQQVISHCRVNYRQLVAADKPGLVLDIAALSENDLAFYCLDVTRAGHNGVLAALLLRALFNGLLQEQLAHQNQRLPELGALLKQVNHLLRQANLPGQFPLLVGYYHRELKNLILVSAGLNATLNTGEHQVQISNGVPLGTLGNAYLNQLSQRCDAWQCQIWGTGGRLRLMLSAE
# B1: RssB, full-length, untagged, purified (natural protein, E. coli, UniProt P0AEV1 1-337, looked up)
# chain: MTQPLVGKQILIVEDEQVFRSLLDSWFSSLGATTVLAADGVDALELLGGFTPDLMICDIAMPRMNGLKLLEHIRNRGDQTPVLVISATENMADIAKALRLGVEDVLLKPVKDLNRLREMVFACLYPSMFNSRVEEEERLFRDWDAMVDNPAAAAKLLQELQPPVQQVISHCRVNYRQLVAADKPGLVLDIAALSENDLAFYCLDVTRAGHNGVLAALLLRALFNGLLQEQLAHQNQRLPELGALLKQVNHLLRQANLPGQFPLLVGYYHRELKNLILVSAGLNATLNTGEHQVQISNGVPLGTLGNAYLNQLSQRCDAWQCQIWGTGGRLRLMLSAE
# notes: RssB (SprE), adaptor protein of ClpXP, E. coli; residues 1-337 by the printed domain limits; Monomeric and dimeric RssB were separated by preparative SEC; degradation assays used monomeric RssB; also called SprE; full-length RssB; source: E. coli, Ub-fusion system, purified (IMAC, preparative SEC)
# B2: His10-tagged IraD (natural protein, E. coli, UniProt P39375 1-130, looked up)
# chain: MMRQSLQAVLPEISGNKTSSLRKSVCSDLLTLFNSPHSALPSLLVSGMPEWQVHNPSDKHLQSWYCRQLRSALLFHEPRIAALQVNLKEAYCHTLAISLEIMLYHDDEPLTFDLVWDNGGWRSATLENVS
# notes: IraD, anti-adaptor induced by DNA damage, E. coli; source: E. coli, overexpressed, purified (essentially as Bougdour et al., 2008)
# B3: IraP with a C-terminal His10-tag, purified (natural protein, E. coli, UniProt P0AAN9 1-86, looked up)
# chain: MKNLIAELLFKLAQKEEESKELCAQVEALEIIVTAMLRNMAQNDQQRLIDQVEGALYEVKPDASIPDDDTELLRDYVKKLLKHPRQ
# notes: IraP, anti-adaptor induced by phosphate starvation, E. coli; also called His10-tagged IraP; source: E. coli, overexpressed, purified (essentially as Bougdour et al., 2008); not shown: His10, C-terminal, kept
# B4: RssBN, N-terminal domain of RssB (residues 1-129), untagged, purified (domain or fragment, E. coli, UniProt P0AEV1 1-129, looked up)
# chain: MTQPLVGKQILIVEDEQVFRSLLDSWFSSLGATTVLAADGVDALELLGGFTPDLMICDIAMPRMNGLKLLEHIRNRGDQTPVLVISATENMADIAKALRLGVEDVLLKPVKDLNRLREMVFACLYPSMF
# notes: RssB, E. coli, N-terminal domain, residues 1-129; also called N-domain of RssB; receiver domain; source: E. coli, Ub-fusion system, purified (IMAC, SEC)
# Key:
# [1] = target: the molecule itself; assay: SEC; preparative grade SEC in the purification of untagged RssB, separating monomeric and dimeric RssB
# [2] = target: B1; assay: pull-down; purified His10-tagged IraD immobilised on Ni-NTA agarose beads; purified untagged RssB, RssBN or RssBC added; washed, eluted with imidazole; SDS-PAGE, CBB; conditions: both partners purified
# [3] = target: the molecule itself; assay: SEC; Superdex 75; 5 nmol of IraD, RssBN or the IraD-RssBN complex; chilled GF buffer (20 mM Tris-HCl pH 7.5, 10 mM MgCl2, 0.1 mM EDTA, 1 mM DTT, 140 mM NaCl, 5% glycerol, 0.005% Triton X-100); fractions on SDS-PAGE, CBB
# [4] = target: T1, RssBC, C-terminal domain of RssB …; assay: pull-down; purified IraP immobilised on Ni-NTA agarose beads via a C-terminal His10-tag; purified RssB, RssBN or RssBC added; washed, eluted with imidazole; immunoblotting; conditions: both partners purified
binder,measurement,setting,value
B1,stoichiometry N,[1],2
B2,binding result,[2],binds
same,stoichiometry N,[3],2
B3,binding result,[4],binds
B4,stoichiometry N,[3],2
